According to publication PMC10075959:

Legend:
[1] = target: 229E-related bat coronavirus N-protein LRS peptide (comprising the predicted helix) (229E-related bat coronavirus); assay: AUC
[2] = target: MERS N-protein LRS peptide (comprising the predicted helix) (MERS); assay: AUC
[3] = target: SARS-CoV N-protein LRS peptide (comprising the predicted helix) (SARS-CoV); assay: AUC
[4] = target: human coronavirus NL63 N-protein LRS peptide (comprising the predicted helix) (human coronavirus NL63); assay: AUC; sedimentation velocity of peptides at different concentrations, 20°C, 55,000 rpm, working buffer (10.1 mM Na2PO4, 1.8 mM KH2PO4, 2.7 mM KCl, 10 mM NaCl, pH 7.40), also with 10% TFE; c(s) distributions; monomer to oligomer (trimer)
[5] = target: murine hepatitis virus (MHV) N-protein LRS peptide (comprising the predicted helix) (murine hepatitis virus); assay: as above

Substance “229E-related bat coronavirus N-protein LRS peptide (comprising the predicted helix)” has a stoichiometry N [1] of 3.
“MERS N-protein LRS peptide (comprising the predicted helix)” showed a stoichiometry N [2] of 3.
In the case of “SARS-CoV N-protein LRS peptide (comprising the predicted helix)”, the stoichiometry N [3] is reported as 3.
“human coronavirus NL63 N-protein LRS peptide (comprising the predicted helix)” gave a stoichiometry N [4] of 3.
For “murine hepatitis virus (MHV) N-protein LRS peptide (comprising the predicted helix)”, the stoichiometry N [5] was 3.
